# Reference: the supplement of paper PMC9170038
# Tested on: MS2 coat protein
# Experiment: apparent KD of MS2 coat protein; designed switch direction (-1 OFF switch, 1 ON switch): -1; higher = weaker reporter binding
# How it was run: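 SNAP-549-labelled MS2 coat protein was titrated, doubling from 0.7 or 1.5 nM to 3 µM, over designed RNA switches transcribed on Illumina chips by stalled E. coli RNA polymerase. Runs were done without input, with 200 uM small-molecule ligand, or with an oligonucleotide input. Apparent KD is the per-design median over clusters of curve-fitted normalised fluorescence.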
# [1] = Eterna round: R95, input ligand: FMN 200 uM
# [2] = Eterna round: R95, input ligand: microRNA oligo, concentration not stated
# [3] = Eterna round: R95, input ligand: none
# [4] = input ligand: microRNA oligo, concentration not stated
Sequence,apparent KD of MS2 coat protein (input ligand: FMN 200 uM) [nM],apparent KD of MS2 coat protein (input ligand: none) [nM],apparent KD of MS2 coat protein [1] [nM],apparent KD of MS2 coat protein [2] [nM],apparent KD of MS2 coat protein [3] [nM],apparent KD of MS2 coat protein [4] [nM]
"CUAGGUCGAGGAUAUACAUGAGGAUCACCCAUGUCGGUUCCAUGAGAGCUAGACACUAGUAGAAGGCGGUAGGC [Eternabot (L2) Solution 60] (Eterna round: R97, puzzle: Exclusion 3)",26.1,27.8,,,,
CUAGUCCGAGGAUAUAUAUUGUGAUACAUGAGGAUCACCCAUGUAAUAAUAUGGAAAUAAAUAGAAGGCGGACUAG [Mat - Exclusion 5 - JL mod - D53] (puzzle: Exclusion 5),,,56.4,36.8,27,
CUAGUCCGAGGAUAUAUUAAGUGAUACAUGAGGAUCACCCAUGUUAUUUAAUGGAUGUUAAUAGAAGGCGGACUAG [Mat - Exclusion 5 - JL mod - D76] (puzzle: Exclusion 5),,,55,37.7,77.8,
"CUAUCUUGCAAGGAUAUGCAAUUUAUUAUUUAUGCAGAAGGUGCUACAUGAGGAUCACCCAUGUUUCUGGGUUU [JR_E6_Sub046] (Eterna round: R96, puzzle: Exclusion 6)",314,120,,,,116
CUAUCUUGCAAGGAUAUGCAAUUUAUUAUUUAUGCAGAAGGUGCUACAUGAGGAUCACCCAUGUUUCUGGGUUU [JR_E6_Sub046] (puzzle: Exclusion 6),,,,117,,
CUAUUGUGAGGAUAUCAGGUGUGCUAGCGUACUGGUACAUCUGAGAAGGCACAUGAGGAUCACCCAUGUUUCUU [JL-ex4-3.20 Brourd mod] (puzzle: Exclusion 4),,,,18.4,,
"CUCAGGUGAGGAUAUGCUUAAGGAUCGGUACACCGACACCUGUAGAAGGCACAUGAGGAUCACCCAUGUUAGGC [Eternabot (L1) Solution 68] (Eterna round: R97, puzzle: Exclusion 4)",30.1,27.9,,,,
"CUCAUUUGUCAGGAUAUCGUGUGGCUAAUUGUACGAGAAGGGACGACAUGAGGAUCACCCAUGUGGUCUUUGAG [JR_Ex6_Sub083] (Eterna round: R97, puzzle: Exclusion 6)",196,54.8,,,,
"CUCCAUGCCCAGGCUUAGAACAUGAGGAUCACCCAUGUAGAUCCAGAAAAUUUGCUCGUCAGGCAAUUUAUAGAUUG [Eternabot (L1) Solution 9] (Eterna round: R97, puzzle: Sensor, turn-off variant 1)",500,687,,,,
"CUCCCACAUGAGGAUCACCCAUGUGAGGAUAUGGAGCGCGACCGCGCGGUCGCGUACACCAGAAGGCGCAUGAU [1st #81] (Eterna round: R97, puzzle: Exclusion 1)",24.1,21.1,,,,
"CUCCGCCGCAGAGGAUAUGGAUGUCGGAGACAUGAGGAUCACCCAUGUAUCCUGUCGAUGAGUACCCAGAAGGUUGUCACGCAU [Eternabot solution 49] (Eterna round: R96, puzzle: Exclusion NG 2)",26.4,26.1,,,,26
"CUCCGGCGUGUAGGAUAUGGUUCCGUUUAGGAUCCAGAAGGACAUGAGGAUCACCCAUGUACAUGUCGUCGGUCGUCACCGGGC [salish99_ExNG1_r04_212] (Eterna round: R96, puzzle: Exclusion NG 1)",110,28.5,,,,24.5
"CUCCGGCGUGUAGGAUAUGGUUCCGUUUCGGUUCCAGAAGGACAUGAGGAUCACCCAUGUACAUGUCGUCGGUCGUCACCGGGC [salish99_ExNG1_r04_215] (Eterna round: R96, puzzle: Exclusion NG 1)",120,35.4,,,,21.7
"CUCCUCAUGGCGCCUAAACACAUGAGGAUCACCCAUGUACAGGCUCUUUGCCGUCUUAUAAUAAAACCGAGGAUGCG [Ageusan] (puzzle: Sensor v3, turn-off variant 1)",,,40.2,219,36.4,
"CUCGUGCAGCAAAGCUGUACGAGUACAUGAGGAUCACCCAUGUAGGAUAUGGUACGCAAAGCGUGCUAGAAGGAUAUGUGAAGG [Mat - Exclusion NG 3 - Mod of JL - D88] (Eterna round: R96, puzzle: Exclusion NG 3)",49.4,51.5,,,,36.2
CUCUACGGAGGAUAUACAACCGGUUAUCCCUGUGGAACGCCACAUGAGGAUCACCCAUGUAGAAGGCCGAGAAA [Ceones] (puzzle: Exclusion 2),,,15.2,211,218,
CUCUUGUAAGGAUAUCUGACAAGUGACGAAAGUCACAGUUCAGAGAAGGUACAUGAGGAUCACCCAUGUAGAAC [Exclusion 4 - Mod Brourd Ex 4-3: 41] (puzzle: Exclusion 4),,,,60.6,,
"CUGAACCCGGUAGGAUAUAUUGUGGGCAGGCGUGGAACGACAUGAGGAUCACCCAUGUAAUUGAGGUAGAAGGGCCGAGAGAUU [Excl-NG2-LRO14] (Eterna round: R96, puzzle: Exclusion NG 2)",32.8,37.1,,,,25.9
"CUGAAUCGAGGAUAUUGUACUGCUGACAUGAGGAUCACCCAUGUAUGUUAACUCAGCCGUCGAGAAGGCGAACAUA [BotMod 33 - Jieux - Exclusion 5] (Eterna round: R97, puzzle: Exclusion 5)",12.8,19,,,,
"CUGAGCAGACGGAGAUCCAACAUGAGGAUCACCCAUGUCUCAAAAGCUUUUUGCUCGUCUUAUCCUCCUCUGCUCUC [Orgeain] (puzzle: Sensor v3, turn-off variant 1)",,,14.8,31.6,14.1,
"CUGAGGUAGCGGUCCUAUGACAUGAGGAUCACCCAUGUACCUUGCUACGAGCUUUUUGCUCGUCUUAUAAUUCUCAG [Mat - Sensor v3 - turn-off var 1 - JL Mod - D31] (puzzle: Sensor v3, turn-off variant 1)",,,151,96.5,247,
"CUGAGUUUAGGAUAUACAUGAGGAUCACCCAUGUAAAGUAGCUUGCGUACAGGCAGAUGUAGAAGGAAAUUCGG [Mod of JL 7 - Jieux - Exclusion 3] (Eterna round: R97, puzzle: Exclusion 3)",31.5,41.8,,,,
CUGAUGUGAGGAUAUCUAAAAGAAACUGGGCAAAUACCCAGAGAGAAGGCACAUGAGGAUCACCCAUGUAACGA [Anedin] (puzzle: Exclusion 4),,,,20.9,,
